According to patent US20020132976A1, “Immunogenic peptides derived from prostate-specific antigen (PSA) and uses thereof” (priority 2000, published 2002):
Marks after values point to notes of the source that are not given here.

How the values were obtained:
[1] = target: T1, HLA-A0201 molecules on T2 cells (Homo sapiens, UniProt P04439, D140Y/D185E/D98H/E176V/E277Q/G131W/G231S/I119V/I121R/I166T/I218V/L300P/L318F/N151K/N90K/P208A/P217A/Q86G/Q94H/R138H/R169H/T345S); assay: Capacity of PSA derived peptides to bind and stabilize HLA-A0201 molecules on T2 cells (BB7.2 antibody, flow cytometry); type: cell-based; conditions: for Fluorescence Index (FI): T2 cells; for HLA-A0201 binding as judged by Fluorescence Index (FI) values: membrane-bound HLA-A0201 molecules on T2 cells
T1 construct: endogenous in cells; host or cells: T2 cell line (Dr. Peter Creswell, Yale University)
Experimental: The ability of the PSA derived peptides described in Table 1 to stabilize membrane-bound HLA-A0201 molecule was assessed utilizing the T2 cell line (Dr. Peter Creswell, Yale University). The cell line has been well documented to have a defective TAP (i.e. Transporter for Antigen Processing) transporter function. As a result, the majority of intracellularly generated peptides are not transported into the endoplasmic reticulum and thus are unable to associate with newly synthesized HLA class 1 MHC molecules (i.e. HLA-A0201; Salter, R D and Creswell, P. (1986) EMBO J 5:943). […] The stability of the surface HLA-A0201 molecules can be restored upon interaction with suitable exogenous peptides. The stabilization of the conformation of the class 1 MHC molecules is accompanied by the formation of an immunodominant epitope recognized by a mouse monoclonal antibody (designated BB7.2; American Type Culture Collection (ATCC)). Thus, the detection of this specific epitope is indicative of stable membrane-bound HLA-A0201 molecules loaded with peptide. Subsequent dissociation of peptides from the HLA class 1 MHC molecules results in the loss of BB7.2 monoclonal antibody binding.
T2 cells were propagated in Iscove's complete medium (iscove's medium supplemented with 10% heat-inactivated bovine serum, 120.0 units per ml of penicillin G sodium, 120 μg per ml of streptomycin sulphate, and 0.35 mg per ml of L-glutamine). The ability of PSA peptides (Table 1) to bind and stabilize surface HLA-A0201 molecules on T2 cells was determined utilizing a protocol documented in the art (Deng, Y. (1997) J Immune 158:1507-1515). In essence, 0.5×10^6 T2 cells were incubated with 125.0 μM of the test peptide in 200.0 μl of serum-free culture medium (Iscove's medium supplemented with 120.0 units per ml of penicillin G sodium, 120.0 μg per ml of streptomycin sulphate and 0.35 mg per ml of L-glutamine) overnight at 37° C. Subsequently, cells were washed twice with Iscove's medium (without bovine serum) to remove free PSA peptide. To the cell pellet was added 1.0 ml of complete Iscove's medium (supplemented with fetal bovine serum (10% final)) containing 5.0 μg per ml of brefeldin A (Sigma), 12.5 μg per ml of anisomycin (Sigma) and 5.0 μg per ml of cyclohexamide (Sigma). […] The cells were subsequently incubated 30 min on ice prior to two washes with ice-cold PBA (phosphate buffered saline (pH 7.2) containing 2.0% bovine serum). 100.0 μl of PBA containing 5.0 μg of monoclonal antibody BB7.2 was added to each test sample. The reaction was allowed to proceed on ice for 45 min. Cells were then washed three times with ice-cold PBA. The binding of BB7.2 was detected via the addition of 100.0 μl of PBA containing […] of goat anti-mouse IgG-Fc fluorescein (FITC) conjugate (BETHYL Laboratories Inc.). After a 30 min incubation on ice, cells were twice washed with ice-cold PBA, and twice with ice-cold PBS (pH 7.2). Cells were immediately fixed by the addition of 50.0 μl of 1.0% paraformaldehyde. Samples were analyzed by Flow Cytometry. Results were expressed in units of Fluorescence Index (FI), calculated by the equation: […]
Mean Fluorescence (MF) of experimental sample (peptide treated)−MF of control sample (cells not peptide treated) MF of control sample (cells not peptide treated)
An FI value of 0.5 or greater was deemed to be significant.

[2] = system: A2Kb transgenic mouse; assay: Immunogenicity of PSA peptide in A2Kb transgenic mice (51Cr-release CTL assay); type: in vivo; conditions: 100.0 μg peptide subcutaneously in IFA with I-Ab-restricted peptide; spleenocytes re-stimulated in vitro; 4 hr 51Cr-release, P815-A2Kb targets; FIG. 1
Experimental: The A2Kb transgenic mouse was used to assess the immunogenicity of the HLA-A0201 binding PSA peptides. Mice of the B1O background (transgenic for the A2Kb chimeric gene) were purchased from the Scripps Clinic in California, USA. Mice were injected subcutaneously at the base of the tail with a dose of inoculum prepared by emulsifying 100.0 μg of the test peptide and 100.0 μg of an I-A^b-restricted peptide (described in Milich, D. R. et al. (1987) J. Immune 139: 1223-1231) in incomplete Freund's adjuvant (IFA). Spleens of the experimental animals were collected on the 10th or 11th day post immunization. Spleenocytes of the experimental mice were prepared and cultured to enrich for CTLs before being assessed for effector activity. In vitro re-stimulation of the in vivo generated CTLs was performed by co-culturing in a 25 cm^2 tissue culture flask 3×10^7 responder cells (i.e. spleenocytes) with 1.3×10^7 irradiated autologous LPS (lipopolysaccharide)-blasts which had been pulsed with the respective peptide (100.0 μg per 10^8 cells). Cultures were kept in a 37° C., humidified CO2 incubator for 6-7 days before being tested for effector function in a standard 4 hr in vitro ^51Cr-release CTL assay as follows. The responders were harvested from the 6-7 day cultures and washed twice with RPMI-1640 medium (without bovine serum). […] Supernatant aliquots were then removed and counted for radioactivity.

[3] = 125.0 μM peptide overnight at 37° C., then 3.0 hr de-stabilization step, FI of 0.5 or greater deemed significant

| Fluorescence Index (FI) [1, 3] | HLA-A0201 binding as judged by Fluorescence Index (FI) values [1] | Fluorescence Index (FI) ([1]; 125.0 μM peptide, analysis did not include 3 hr de-stabilization step) | Sequence | Immunogenicity / epitope-specific CTL response [2] |
| --- | --- | --- | --- | --- |
| 0 |  |  | DLHVISNDV [CLP-317] |  |
|  | does not exhibit binding | 0.2** | PLYDMSLLK (CLP320) [CLP-320] |  |

The remaining lines, values behind:

| Sequence | Fluorescence Index (FI) [1, 3] | HLA-A0201 binding as judged by Fluorescence Index (FI) values [1] | Fluorescence Index (FI) ([1]; 125.0 μM peptide, analysis did not include 3 hr de-stabilization step) | Immunogenicity / epitope-specific CTL response [2] |
| --- | --- | --- | --- | --- |
| DLPTQEPAL (CLP315) [CLP-315, PSA derived peptide, preproprotein positions 140-148] | 0 |  |  |  |
| KLQCVDLHV (CLP316) [CLP-316, PSA derived peptide, preproprotein positions 170-178] | 2.7 | demonstrated HLA-A0201 binding |  | immunogenic and capable of eliciting an epitope-specific CTL response |
| MWVPVVFL (CLP313) [CLP-313, PSA derived peptide, preproprotein positions 1-8] | 1.0 | demonstrated HLA-A0201 binding |  |  |
| VLVHPQWVL [CLP-314] | 1.1 | demonstrated HLA-A0201 binding |  |  |
